Results on 1 protein are retold here after PMC4396695, “Structure of the Ribosomal Oxygenase OGFOD1 Provides Insights into the Regio- and Stereoselectivity of Prolyl Hydroxylases” (Structure(London, England:1993), 2015).

This series deals with the molecule itself. The series can be described thus: native gel or EMSA; non-denaturing PAGE of OGFOD1 and of Tpa1p, each run alone; conditions not given.

B1: Tpa1p (termination and polyadenylation protein 1) (enzyme, S. cerevisiae, UniProt P40032 1-644, looked up)
chain: MKRKTAEVKGEKERNSKQISLEEDKIKGMFNPKIWDKTFQDGLKKEIEDSQPYNWGTIHELVNDDLLRAVRKEIETEIHFTKKETDIYRVNQSGDLANLSGLDWDDLSRLPNLFKLRQILYSKQYRDFFGYVTKAGKLSGSKTDMSINTYTKGCHLLTHDDVIGSRRISFILYLPDPDRKWKSHYGGGLRLFPSILPNVPHSDPSAKLVPQFNQIAFFKVLPGFSFHDVEEVKVDKHRLSIQGWYHIPQVGEEGYIPGEEEAWVRNNTSTLAQIESNVLEDFEFPKDERNILSFHEVKHFEKMLKGDAGAKTDNTPKESMTSVISDSVKLSEAEFTYLSQYISPEHLSSKGIEKLQKQFVENSSLQIESFLNDDKSELLKKVIKQKELEQECPYHSKDVKAPWKTAIPPHKARYLYIDGKEYRNFQTEADILEALNNNDLPNFQFTKDAIKIISDASGNSRENNFDAELALIDLAVFHKSTIFKKYLALLTSLCPVSEQILIRRFRPGMDFTLATKCRFNELLKSNPDIIDAVLEGTLCLTPSAGWESGELGGYELYMMDDDEDNKQYLKEDVEDASVYRADDSGDSVLINDPPAWNTFNLVLRDESVLEFVKYVSWSAKSSRWDVKMKWDVKSCDEDGQEDEA
notes: Tpa1p, Saccharomyces cerevisiae, full length, 644 aa, 74 kDa; plasmid pNIC28_Tpa1p; source: E. coli BL21(DE3), purified (HisTrap, Superdex 200, MonoQ)
For orientation: stoichiometry N means the number of molecules, sites or subunits per partner or assembly. Take B1: the “stoichiometry N” value is 2.
